Data: article PMC8983682 (2022)

B1: 1G01 IgG (antibody, V domains shown)
VH: EVQLVESGGRALRPGGSLRLSCAASGFKFDDYAMSWVRQVPGKGLEFVSGLNWNGDITAYTDSVKGRFTVSRDNAKNSLYLHINSPKPEDTALYYCARTSSWGDYTRGPEPKITWYFDLWGRGTLVTVSS
VL: DIQLTQSPSFLSASVGDRITITCRASQGIDGYLAWYQQRPGKAPNLLIYAASLLQSGVPSRFSGSGYGTEFTLTISSLQPEDFATYYCQHLDSYPLFTFGPGTKVDIK
B2: CD6 IgG (antibody, V domains shown)
VH: QVKLQESGGGLVQPKGSLKLSCAASGFTFNTYAMNWVRQAPGKGLEWVARIRSKSNNYATFYADSVKDRFTISRDDSQSMLYLQMHNLKTDDTAMYYCVRPSIYYYASGYLDVWGAGTTVTVSS
VL: QIVLSQSPAILSASPGEKVTMTCRTSSSVSYMHWYQQKPGSSPKPWIYATSNLASGVPFRFSGSGSGTSYSLTISRVEAEDAATYYCQQWNSNPPTFGGGTKLEIK

Target: N1-MI15-WT (recombinant soluble NA head of A/Michigan/45/2015 fused to hVASP) (influenza A virus A/Michigan/45/2015)
Experiment: BLI

| Binder | Kd [nM] |
| --- | --- |
| B1 | < 0.001 |
| B2 | 1.3 |
